According to patent US20020115216A1:

Target: asialoglycoprotein receptor (UniProt P34927)
Experiment: cell-based or functional assay

Sequence of UniProt P34927 (P34927 whole entry, chain 1 of 2): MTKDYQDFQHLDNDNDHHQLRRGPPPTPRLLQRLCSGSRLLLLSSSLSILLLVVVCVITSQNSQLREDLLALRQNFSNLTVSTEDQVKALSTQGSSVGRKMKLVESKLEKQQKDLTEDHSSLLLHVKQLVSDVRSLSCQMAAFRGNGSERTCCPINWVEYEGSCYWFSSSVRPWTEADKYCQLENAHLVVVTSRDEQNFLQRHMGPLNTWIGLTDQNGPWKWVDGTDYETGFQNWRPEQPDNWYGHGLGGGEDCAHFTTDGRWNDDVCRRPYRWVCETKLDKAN
Sequence of UniProt P34927 (P24721 whole entry, chain 2 of 2, further chain): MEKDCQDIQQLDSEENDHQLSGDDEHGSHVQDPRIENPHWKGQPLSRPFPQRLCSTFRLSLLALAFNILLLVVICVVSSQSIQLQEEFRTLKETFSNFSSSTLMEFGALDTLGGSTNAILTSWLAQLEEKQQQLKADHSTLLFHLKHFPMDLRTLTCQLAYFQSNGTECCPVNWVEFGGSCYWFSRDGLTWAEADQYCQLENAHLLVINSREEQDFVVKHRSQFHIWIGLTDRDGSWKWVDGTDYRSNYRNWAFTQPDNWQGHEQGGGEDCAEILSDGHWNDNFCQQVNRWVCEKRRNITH

- inhibition of uptake/expression of the cis pT/GFP/SB in the liver (confocal microscopy of GFP, mice coadministered asialofetuin): > 80%
Substance: asialofetuin (from UniProt P12763 19-359) (ligand)
